Results reported in patent publication US20110294982A1 (Ablynx, published 2011).

B1: VHH-H6 (VHH)
VHH: QVQLQDSGGGLVQAGGSLRLSCEASGRTFSSYAMGWFRQPPGKEREWVSTISRSGSAIYAYPVKGRFTMSRDNAKNTVYLEMNSLKPEDTAVFYCAAARSGVPSSRPTDYDYWGQGTQVTVSS
notes: Used with a Myc tag (captured/detected with anti-Myc 9E10) and a C-terminal His6 tag (detected with anti-HIS6 (C-term)); also called H6-VHH
B2: 140-F10 (VHH)
VHH: EVQLVESGGGSVQAGGSLRLSCAASQRTFSSDVMGWFRQAPGKERDFVAYIHRSGTTYYADSVKGRLTISRDNAKSTVYLQMNSLKPEDTAVYHCAAGRYGSTSDTLYDYWGQGTQVTVSS
B3: 140-B8 (VHH)
VHH: EVQLVESGGGSVQAGGSLRLSCAASQRTFSRDVMGWFRQAPGKERDFVAYSHRSGTTYYADSVKGRFTISRDNAKSTVYLQMNSLKPEDTAVYHCAAGRYGSTSDTLYDYWGQGTQVTVSS
B4: 140-G8 (VHH)
VHH: EVQLVESGGGSVQAGGSLRLSCTASGSIFSINDMGWYRQPPGEQRELVATLTSSDSTKYADSVKSRFTISRDNAKNTVYLQMNSLKPEDTAVYYCNAVINRRGDGRNWSREYWGQGTQVTVSS
B5: 140-A10 (VHH)
VHH: EVQLVESGGGLVQPGGSLRLSCAASGFTFSRMAMGWYRQAPGVERDFLAIISPGGGTNYADSVKGRFTISRDNAKNTVYLQMNSLKPEDTAVYYCNARNFEGRRVDYWGQGTQVTVSS
B6: 140-A2 (VHH)
VHH: EVQLVESGGGLVQAGGSLRLSCAASGSTYRLNNMAWYRQSPGKKRELVALISGITSDPSTYYLDSVRGRFSISRDNALNTVYLQMNSLKPEDTAVYYCKQAWAGVEYWGQGTQVTVSS
B7: 140-H8 (VHH)
VHH: EVQLVESGGGLVQAGGSLRLSCAASISANAIDVVSWYRQAPGKPRELAASITSAGRIKYAESVKGRFGISRDNAKNTVSLQMNSLKPEDTAVYYCNALYRNAIYWGQGTQVTVSS
B8: 140-D4 (VHH)
VHH: EVQLVESGGGLVEAGGSLRLSCATSGSTFGIEAMAWYRQAPGKQRELVATINSASRTNYADSVKGRFTISRDTGKSILYLQMNNLEPEDTAVYYCKITTPLPYRRDFWGQGTQVTVSS
B9: 140-A5 (VHH)
VHH: EVQLVESGGGSVQAGGSLRLSCAASGTTATITVPGWYRQAPGKQRELVAVINSGGTKKYADSVKGRFTISIDNVKRTLYLEMNSLRPEDTAVYYCSTLKYWGQGTQVTVSS
B10: 140-H10 (VHH)
VHH: EVPLVESGGGSVQAGGSLRLSCAASQRTFSRDVTGWFRQAPGKERDFVAYIHRSGETTYYADSVKGRFTISRDNAKSTVYLQMNSLKPEDTAVYHCAAGRYGSTSDTLYDYWGQGTQVTVSS
B11: 140-E10 (VHH)
VHH: EVQLVESGGGLVQAGESLKLSCVASGNILRVTSMGWGRQIPGKQRKLVAWITNEGRTEYADSVKGRFTISRDNAQNTLYLLMNSLKPEDTAVYYCYGFSPRESSGNTYWGQGTQVTVSS

biological target: T1, recombinant VLA-5 (α5β1 integrin) (UniProt P08648 42-995; P05556 21-728, limits assumed); experiment: ELISA, integrin coated at 0.5 µg/well
T1 construct: also called α5β1 (VLA-5) integrin; a5β1 integrin
Method: FIG. 3: Direct binding of VHH-H6 to recombinant α3β1 integrin. Recombinant VLA-3 (α3β1 integrin) or recombinant VLA-5 (a5β1 integrin) were coated into Maxisorb plates at 0.5 μg/well, and binding with VHH-H6 or no VHH (in which anti-Myc was used) was assayed in ELISA. Binding of the VHHs to the integrins is expressed as absorbance at 450 nm. Data represents the mean±standard deviation of three independent experiments

T1 sequence (P08648 42-995 limits assumed, chain 1 of 2): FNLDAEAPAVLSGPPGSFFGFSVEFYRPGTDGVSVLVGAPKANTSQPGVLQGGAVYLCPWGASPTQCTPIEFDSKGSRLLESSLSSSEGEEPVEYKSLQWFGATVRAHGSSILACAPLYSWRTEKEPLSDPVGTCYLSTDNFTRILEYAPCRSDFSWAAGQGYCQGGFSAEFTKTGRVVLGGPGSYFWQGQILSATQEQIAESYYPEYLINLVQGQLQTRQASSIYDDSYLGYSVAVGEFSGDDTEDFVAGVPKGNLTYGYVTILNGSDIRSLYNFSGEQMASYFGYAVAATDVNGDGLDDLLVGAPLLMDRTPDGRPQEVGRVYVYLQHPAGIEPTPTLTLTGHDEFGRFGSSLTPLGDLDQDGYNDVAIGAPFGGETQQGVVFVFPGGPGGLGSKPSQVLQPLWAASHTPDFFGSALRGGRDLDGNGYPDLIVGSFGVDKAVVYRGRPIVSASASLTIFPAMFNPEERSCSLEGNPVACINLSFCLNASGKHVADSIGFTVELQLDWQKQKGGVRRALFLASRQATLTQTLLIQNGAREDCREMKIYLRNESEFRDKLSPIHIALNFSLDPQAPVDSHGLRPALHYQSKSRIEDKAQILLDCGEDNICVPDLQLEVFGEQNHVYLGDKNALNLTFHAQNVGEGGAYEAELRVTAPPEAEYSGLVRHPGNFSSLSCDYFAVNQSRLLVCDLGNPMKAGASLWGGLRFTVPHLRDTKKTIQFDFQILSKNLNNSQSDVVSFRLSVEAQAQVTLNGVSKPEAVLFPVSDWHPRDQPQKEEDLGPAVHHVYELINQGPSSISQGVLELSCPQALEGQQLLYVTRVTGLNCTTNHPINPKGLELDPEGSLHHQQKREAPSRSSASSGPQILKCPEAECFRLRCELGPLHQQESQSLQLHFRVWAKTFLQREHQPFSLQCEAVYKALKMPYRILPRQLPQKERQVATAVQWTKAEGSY
T1 sequence (P05556 21-728 limits assumed, chain 2 of 2): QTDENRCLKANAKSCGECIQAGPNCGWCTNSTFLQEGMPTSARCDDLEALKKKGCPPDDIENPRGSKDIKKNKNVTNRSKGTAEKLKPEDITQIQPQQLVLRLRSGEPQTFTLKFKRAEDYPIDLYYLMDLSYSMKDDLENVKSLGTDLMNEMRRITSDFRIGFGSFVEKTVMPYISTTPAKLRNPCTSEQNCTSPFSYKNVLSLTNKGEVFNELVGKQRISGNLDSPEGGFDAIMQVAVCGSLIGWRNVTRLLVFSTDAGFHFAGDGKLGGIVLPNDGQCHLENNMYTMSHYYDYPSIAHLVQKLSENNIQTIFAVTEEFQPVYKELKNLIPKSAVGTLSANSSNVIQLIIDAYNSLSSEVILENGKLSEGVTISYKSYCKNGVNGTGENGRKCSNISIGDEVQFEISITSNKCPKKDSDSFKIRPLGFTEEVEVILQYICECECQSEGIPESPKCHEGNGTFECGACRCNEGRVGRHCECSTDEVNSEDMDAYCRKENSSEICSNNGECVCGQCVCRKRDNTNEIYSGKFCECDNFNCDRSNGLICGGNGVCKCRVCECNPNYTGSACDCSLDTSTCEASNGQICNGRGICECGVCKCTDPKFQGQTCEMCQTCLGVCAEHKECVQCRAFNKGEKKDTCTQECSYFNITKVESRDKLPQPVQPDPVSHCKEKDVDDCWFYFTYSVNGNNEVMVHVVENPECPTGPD

Question: Does B1 bind?
Answer: Result: no binding

biological target: T2, recombinant human alphavbeta6 (human, UniProt P06756 31-992; P18564 22-707, limits assumed); experiment: specificity ELISA on coated integrins, periplasmic extract
T2 construct: Bought, carrier free (R&D Systems 3817-AV/CF); also called aVb6
T2 sequence (P06756 31-992 limits assumed, chain 1 of 2): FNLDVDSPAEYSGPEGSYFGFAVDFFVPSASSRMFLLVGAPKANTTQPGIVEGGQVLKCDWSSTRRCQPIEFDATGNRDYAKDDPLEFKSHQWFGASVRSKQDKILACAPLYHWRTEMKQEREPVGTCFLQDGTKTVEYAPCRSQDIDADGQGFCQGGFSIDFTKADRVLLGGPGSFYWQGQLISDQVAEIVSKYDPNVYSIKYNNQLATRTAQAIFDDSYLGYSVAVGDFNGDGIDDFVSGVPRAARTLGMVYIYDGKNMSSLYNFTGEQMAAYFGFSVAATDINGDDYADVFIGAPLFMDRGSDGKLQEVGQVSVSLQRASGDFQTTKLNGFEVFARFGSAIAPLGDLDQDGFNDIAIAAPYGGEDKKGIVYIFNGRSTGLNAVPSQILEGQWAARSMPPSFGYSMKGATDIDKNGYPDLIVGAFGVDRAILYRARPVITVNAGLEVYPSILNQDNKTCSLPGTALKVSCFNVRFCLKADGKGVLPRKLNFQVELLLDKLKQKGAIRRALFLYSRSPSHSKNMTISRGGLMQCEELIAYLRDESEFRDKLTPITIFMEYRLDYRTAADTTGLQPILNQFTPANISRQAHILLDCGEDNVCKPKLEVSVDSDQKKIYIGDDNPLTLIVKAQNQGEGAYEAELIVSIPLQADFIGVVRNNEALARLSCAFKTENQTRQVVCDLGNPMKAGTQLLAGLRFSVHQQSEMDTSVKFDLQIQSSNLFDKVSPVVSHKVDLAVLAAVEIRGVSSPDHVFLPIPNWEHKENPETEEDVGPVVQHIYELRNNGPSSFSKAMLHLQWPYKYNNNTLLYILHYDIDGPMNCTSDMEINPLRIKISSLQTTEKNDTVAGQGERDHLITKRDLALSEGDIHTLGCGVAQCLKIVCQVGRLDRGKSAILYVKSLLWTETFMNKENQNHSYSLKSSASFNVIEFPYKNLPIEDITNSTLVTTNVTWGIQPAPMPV
T2 sequence (P18564 22-707 limits assumed, chain 2 of 2): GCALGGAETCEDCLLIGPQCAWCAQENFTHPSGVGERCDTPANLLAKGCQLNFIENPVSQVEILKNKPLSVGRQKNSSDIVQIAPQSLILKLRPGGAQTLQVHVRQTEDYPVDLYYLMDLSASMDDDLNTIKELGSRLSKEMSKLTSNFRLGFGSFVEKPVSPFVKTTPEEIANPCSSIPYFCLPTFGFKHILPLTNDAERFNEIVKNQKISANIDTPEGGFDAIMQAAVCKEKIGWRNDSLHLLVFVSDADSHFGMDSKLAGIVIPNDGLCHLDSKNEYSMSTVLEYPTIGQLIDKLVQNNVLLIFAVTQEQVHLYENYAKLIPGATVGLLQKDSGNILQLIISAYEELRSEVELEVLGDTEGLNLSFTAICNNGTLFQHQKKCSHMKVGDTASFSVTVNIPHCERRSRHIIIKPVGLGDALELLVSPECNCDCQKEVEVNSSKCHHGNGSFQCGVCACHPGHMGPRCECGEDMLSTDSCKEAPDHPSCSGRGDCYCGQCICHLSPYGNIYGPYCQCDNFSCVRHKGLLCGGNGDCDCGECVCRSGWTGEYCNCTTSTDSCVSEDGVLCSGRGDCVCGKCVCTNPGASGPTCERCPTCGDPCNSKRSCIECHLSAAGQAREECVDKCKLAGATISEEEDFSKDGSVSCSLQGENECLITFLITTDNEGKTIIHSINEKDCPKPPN

Question: Does B2 bind?
Answer: Result: binds

Question: Does B3 bind?
Answer: Result: binds

Question: Does B4 bind?
Answer: Result: binds

Question: Does B5 bind?
Answer: Result: binds

Question: Does B6 bind?
Answer: Result: binds

Question: Does B7 bind?
Answer: Result: binds

Question: Does B8 bind?
Answer: Result: binds

Question: Does B9 bind?
Answer: Result: binds

Question: Does B10 bind?
Answer: Result: binds

Question: Does B11 bind?
Answer: Result: binds
